Results published in US20240287144A1.

Tests used:
Test in all cases: cell-based or functional assay
Set-up in all cases: unit not given beside the values
[1] = target: HIV-1 Env of virus HxB2.DG.SG3 (Clade B) (HIV-1 strain HxB2)
[2] = target: HIV-1 Env of virus BG505.W6M.C2.T332N.SG3 (Clade A) (HIV-1 strain BG505)
[3] = target: HIV-1 Env of virus DJ263.8.SG3 (Clade AG) (HIV-1 strain DJ263.8)
[4] = target: HIV-1 Env of virus 001428-2.42.SG3 (Clade C) (HIV-1 strain 001428-2.42)
[5] = target: HIV-1 Env of virus MW965.26.SG3 (Clade C) (HIV-1 strain MW965.26)
[6] = target: HIV-1 Env of virus CNE58.SG3 (Clade C) (HIV-1 strain CNE58)
[7] = target: HIV-1 Env of virus 3301.V1.C24.SG3 (Clade AC) (HIV-1 strain 3301.V1.C24)
[8] = target: HIV-1 Env of virus 25925-2.22.SG3 (Clade C) (HIV-1 strain 25925-2.22)
[9] = target: HIV-1 Env of virus ZM106.9.SG3 (Clade C) (HIV-1 strain ZM106.9)
[10] = target: HIV-1 Env of virus 242-14.SG3 (Clade AG) (HIV-1 strain 242-14)

VRC01 (antibody) was tested, and the ID50 (virus neutralization, ctrl mAb; run with wk 6 sera) [1] was 0.07, the ID50 (virus neutralization, ctrl mAb; run with wk 18 sera) [1] was less than 0.05 and the ID50 (virus neutralization, ctrl mAb; run with wk 6 sera) [2] was 0.097. For the same substance, the ID50 (virus neutralization, ctrl mAb; run with wk 18 sera) [2] was 0.068, the ID50 (virus neutralization, ctrl mAb; run with wk 6 sera) [3] was 0.095 and the ID50 (virus neutralization, ctrl mAb; run with wk 18 sera) [3] was 0.127. The ID50 (virus neutralization, ctrl mAb; run with wk 6 sera) [4] was less than 0.05, the ID50 (virus neutralization, ctrl mAb; run with wk 18 sera) [4] was less than 0.05 and the ID50 (virus neutralization, ctrl mAb; run with wk 6 sera) [5] was 0.025. It also gave an ID50 (virus neutralization, ctrl mAb; run with wk 18 sera) [5] of 0.041, an ID50 (virus neutralization, ctrl mAb; run with wk 6 sera) [6] of 0.398 and an ID50 (virus neutralization, ctrl mAb; run with wk 18 sera) [6] of 0.435. It also gave an ID50 (virus neutralization, ctrl mAb; run with wk 6 sera) [7] of 0.305, an ID50 (virus neutralization, ctrl mAb; run with wk 18 sera) [7] of 0.358 and an ID50 (virus neutralization, ctrl mAb; run with wk 6 sera) [8] of 2.91. The ID50 (virus neutralization, ctrl mAb; run with wk 18 sera) [8] was 1.07, the ID50 (virus neutralization, ctrl mAb; run with wk 6 sera) [9] was 0.472 and the ID50 (virus neutralization, ctrl mAb; run with wk 18 sera) [9] was 0.486. It also gave an ID50 (virus neutralization, ctrl mAb; run with wk 6 sera) [10] greater than 50 and an ID50 (virus neutralization, ctrl mAb; run with wk 18 sera) [10] greater than 50.
